This data set deals with the molecule itself. Nature of the data set: crystal structure.

One may read the stoichiometry N as a count of units in the complex or per binding partner.

B1: [3SCC-(I9H)3] artificial copper peptide (ArCuP), de novo designed trimeric coiled coil peptide (peptide)
chain: GIAAIKQEHAAIKQEIAAIKQEIAAIKWEG
modifications: not fully specified; acetylated N-terminal Gly (Ac-); amidated C-terminal Gly (-CONH2)
In the case of B1, the “stoichiometry N” value is 3.
